Data on 2 molecules can be found in doi:10.1101/2024.01.24.577129, “IgG hexamers initiate acute lung injury” (bioRxiv, 2024).

Experiment [1] concerns the target T1, K^b MHC class I monomer presenting SIINFEKL (Mus musculus, H-2b haplotype (K^b), UniProt P01901;P01887).
T1 construct: Commercial MHC class I monomer; also called H-2K^b; MBL International TB-5001-M; copies: + +
Put plainly: SPR; monoclonal antibody bound via amine coupling to SensEye G Easy2Spot sensors; serial dilutions (0.5-200 nM) of MHC class I monomers injected; triplicate; IBIS MX96 SPR imager. As to conditions: both partners purified.

The target of experiment [2] is T2, D^b MHC class I monomer presenting … (Mus musculus, H-2b haplotype (D^b), UniProt P01899;P01887).
T2 construct: Commercial MHC class I monomer; also called H-2D^b; MBL International TB-5008-M; copies: + +
The experiment is described as above. The following applies: both partners purified.

The target in experiment [3] is T3, K^d MHC class I monomer presenting VYLKTNVFL (Mus musculus, H-2d haplotype (K^d), UniProt P01902;P01887).
T3 chain 1: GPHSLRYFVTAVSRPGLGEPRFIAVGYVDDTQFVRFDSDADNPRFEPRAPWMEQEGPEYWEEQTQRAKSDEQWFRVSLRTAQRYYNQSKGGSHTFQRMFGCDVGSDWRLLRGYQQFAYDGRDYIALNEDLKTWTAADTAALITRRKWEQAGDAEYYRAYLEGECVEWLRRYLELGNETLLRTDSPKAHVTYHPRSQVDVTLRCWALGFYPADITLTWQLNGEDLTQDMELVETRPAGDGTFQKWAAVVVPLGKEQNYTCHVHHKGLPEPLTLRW
T3 chain 2: not shown
T3 chain 3: VYLKTNVFL

B1: 34-1-2S antibody (antibody, V domains shown)
VH: EVQLQQSGAEFVRPGASVKLSCTASGFNLKDDYMFWVKQRPEQGLEWIGWIAPDNGDTEYASKFQGKATITADTSSNTAYVQLSSLTSEDTAVYYCTTWGYYSYVNYWGQGTTLTVSS
VL: DIQMTQSPSSLSASLGERVSLTCRASQDIGSNLNWLQQEPDGTIKRLIYATYSLDSGVPKRFSGSRSGSDYSLTISSLESEDFVDYYCLQYASSPYTFGGGTKLEIK
notes: heavy chain variable region of 34-1-2S; mouse IgG2a heavy chain constant region; the class follows from the mIgG2a isotype control and the mIgG2a model; light chain variable region of 34-1-2S; light chain constant region of the mouse antibody; Mouse IgG2a monoclonal antibody; also called clone 34-1-2S; MHC class I alloantibody 34-1-2S; source: bought: BioXCell Cat# BE0180 (stated for the injury …)
In the case of B1, the results for the binding result in experiment [1] and in experiment [2] were “binds” and “no binding (tested: 0.5-200 nM)”, respectively.

B2: Kd1 (antibody, V domains shown)
VH: EVLLVESGGDLVKPGGSLKLSCAASGFTFRTYAMSWVRQTPEKRLEWVATIGDDGSYTFYPDNVKGRFTISRDNAKNNLYLQMRHLKSEDTAIYFCARDGLFAYWGQGTLVTVSA
VL: DIQMTQSPSSLSASLGGKVTITCKASQDIKKNIAWYQYKPGKGPRLLIHYTSTLQPGISSRFSGSGSGRDYSFSISNLEPEDIATYYCLQYDSLLYTFGGGTKLEIK
B2: in experiment [3], the binding result is listed as “binds”.
